Laboratory results as given in patent publication US20260193309A1 (BRIGHAM AND WOMEN S HOSPITAL, published 2026).
Values belong to the binder of their own block, whether it stands above or below them.

B1: human CEACAM1 IgV domain, wild type (tagless hCEACAM1 IgV domain) (receptor)
chain: QLTTESMPFNVAEGKEVLLLVHNLPQQLFGYSWYKGERVDGNRQIVGYAIGTQQATPGPANSGRETIYPNASLLIQNVTQNDTGFYTLQVIKSDLVNEEATGQFHVYP
notes: also called hCEACAM1 WT; WT

What was measured:
[1] = biological target: the molecule itself; test: PDB-PISA analysis of the dimer crystal structure
[2] = biological target: the molecule itself; test: DSF and SEC-MALS (FIGS. 14B and 14C)
[3] = biological target: B1; test: structure of the heterodimer (FIG. 10C)
[4] = biological target: B1; test: PDB-PISA analysis of the dimer crystal structure
[5] = biological target: B1; test: ELISA binding assay, tagless hCEACAM1 IgV protein added to WT hCEACAM1; signal given as fold response relative to WT

Binder: B1
PDB dimer formation score (PDB-PISA) [1]: 0.89

B2: hCEACAM1 IgV domain mutant I91A (receptor)
chain: QLTTESMPFNVAEGKEVLLLVHNLPQQLFGYSWYKGERVDGNRQIVGYAIGTQQATPGPANSGRETIYPNASLLIQNVTQNDTGFYTLQVAKSDLVNEEATGQFHVYP
notes: also called hCEACAM1 I91A
binding result [2]: binds

B3: hCEACAM1 IgV domain mutant V39A (receptor)
chain: QLTTESMPFNVAEGKEVLLLVHNLPQQLFGYSWYKGERADGNRQIVGYAIGTQQATPGPANSGRETIYPNASLLIQNVTQNDTGFYTLQVIKSDLVNEEATGQFHVYP
notes: also called hCEACAM1 V39A
binding result [2]: binds

B4: hCEACAM1 IgV domain variant D40R (receptor)
chain: QLTTESMPFNVAEGKEVLLLVHNLPQQLFGYSWYKGERVRGNRQIVGYAIGTQQATPGPANSGRETIYPNASLLIQNVTQNDTGFYTLQVIKSDLVNEEATGQFHVYP
notes: also called hCEACAM1 D40R
PDB dimer formation score (PDB-PISA) [1]: 0.93

binding result [3]: binds
B5: hCEACAM1 IgV domain variant R38D/G41S (receptor)
chain: QLTTESMPFNVAEGKEVLLLVHNLPQQLFGYSWYKGEDVDSNRQIVGYAIGTQQATPGPANSGRETIYPNASLLIQNVTQNDTGFYTLQVIKSDLVNEEATGQFHVYP
notes: also called R38D G41S monomer

PDB dimer formation score (PDB-PISA) [4]: 0.91
B6: hCEACAM1 IgV domain variant R38D (receptor)
chain: QLTTESMPFNVAEGKEVLLLVHNLPQQLFGYSWYKGEDVDGNRQIVGYAIGTQQATPGPANSGRETIYPNASLLIQNVTQNDTGFYTLQVIKSDLVNEEATGQFHVYP
notes: also called tagless R38D; hCEACAM1 R38D

binding result [5]: binds
B7: hCEACAM1 IgV domain variant Q89H (receptor)
chain: QLTTESMPFNVAEGKEVLLLVHNLPQQLFGYSWYKGERVDGNRQIVGYAIGTQQATPGPANSGRETIYPNASLLIQNVTQNDTGFYTLHVIKSDLVNEEATGQFHVYP
notes: also called tagless Q89H; hCEACAM1 Q89H
PDB dimer formation score (PDB-PISA) [1]: 0.96
